Molecular target: SARS-CoV-2 Spike protein on pseudotyped virus (SARS-CoV-2, UniProt P0DTC2 14-1273)
Assay: cell-based or functional assay

| Binder | IC50, neutralization of SARS-CoV-2pp, DBT-ACE2 cells (further assays) | IC50, neutralization of SARS-CoV-2pp, DBT-ACE2 cells |
| --- | --- | --- |
| SARS-CoV-2 S315 (antibody, V domains shown) VH: EVQLVESGGGLVQPGGSLRLSCAASGFTFSNYWMTWVRQAPGKGLEWVANIKQDGSEKYYVDSVKGRFTISRDNAKNSLYLQMNSLRAEDTAVYYCARDLWWNDQAHYYGMDVWGQGTTVTVSS VL: SYELTQPPSVSVSPGQTARITCSGDAFPNQYAYWYQQKPGQAPVMLIYKDSERPSGIPERFFGSSSGTTVTLTIRGVQAEDEADYYCQSADSSGTVFGGGTKLTVL | 25.1 µg/mL |  |
| SARS-CoV-2 S304 (antibody, V domains shown) VH: EVQLVESGGGLVQPGGSLRLSCAASGFTFSSYDMHWVRQTTGKGLEWVSTIGTAGDTYYPDSVKGRFTISREDAKNSLYLQMNSLRAGDTAVYYCARGDSSGYYYYFDYWGQGTLLTVSS VL: DIQMTQSPSSLSAAVGDRVTITCRASQSIGSYLNWYQQKPGKAPKLLIYAASSLQSGVPSRFSGSGSGTDFTLTISSLQPEDFAIYYCQQSYVSPTYTFGPGTKVDIK |  | ~17 µg/mL |

Source: US20240400652A1 (VIR BIOTECHNOLOGY, published 2024)
